B1: Construct 156: Hisx8-anti-BCMA VHH-(G4S)2-anti-CD3 VHH-(G4S)2-CH1-CH2-TAP1 NBD (Cys-less; modified D-helix; D668N) (other)
chain: MHHHHHHHHEVQLVESGGGLVQAGGSLRLSCAASGRTFTMGWFRQAPGKEREFVAAISLSPTLAYYAESVKGRFTISRDNAKNTVVLQMNSLKPEDTALYYCAADRKSVMSIRPDYWGQGTQVTVSSGGGGSGGGGSQVQLVESGGGLVQPGGSLRLSCAASGSIFSANTMGWYRQAPGKQRELVAGMNTSGSTVYGDSVKGRFTISRDNAKNIAYLQMNSLIPEDTAVYYCTLVQRGPNYWGQGTQVTVSSGGGGSGGGGSETEFFQQNQTGGGGSGLQTVRSFGGGGGSGGSGLLTPLHLEGLVQFQDVSFAYPNRPDVLVLQGLTFTLRPGEVTALVGPNGSGKSTVAALLQNLYQPTGGQLLLDGKPLPQYEHRYLHRQVAAVGQEPQVFGRSLQENIAYGLTQKPTMEEITAAAVKSGAHSFISGLPQGYDTEVDEAGSQLSGGQRQAVALARALIRKPSVLILDNATSALDAGNQLRVQRLLYESPERYSRSVLLITQHLSLVEQADHILFLEGGAIREGGTHQQLMEKKGSYWAMVQAPADAPEGGGGS
notes: Single polypeptide expressed in E. coli; Here CH1-CH2 means Coupling Helix 1 and Coupling Helix 2 (the CAP)
B2: Construct 159: CH1-CH2-TAP1 NBD (Cys-less; modified D-helix; D668N)-(G4S)2-anti-CD3 VHH-(G4S)2-anti-BCMA VHH-Hisx8 (other)
chain: METEFFQQNQTGGGGSGLQTVRSFGGGGGSGGSGLLTPLHLEGLVQFQDVSFAYPNRPDVLVLQGLTFTLRPGEVTALVGPNGSGKSTVAALLQNLYQPTGGQLLLDGKPLPQYEHRYLHRQVAAVGQEPQVFGRSLQENIAYGLTQKPTMEEITAAAVKSGAHSFISGLPQGYDTEVDEAGSQLSGGQRQAVALARALIRKPSVLILDNATSALDAGNQLRVQRLLYESPERYSRSVLLITQHLSLVEQADHILFLEGGAIREGGTHQQLMEKKGSYWAMVQAPADAPEGGGGSGGGGSGGGGSQVQLVESGGGLVQPGGSLRLSCAASGSIFSANTMGWYRQAPGKQRELVAGMNTSGSTVYGDSVKGRFTISRDNAKNIAYLQMNSLIPEDTAVYYCTLVQRGPNYWGQGTQVTVSSGGGGSGGGGSEVQLVESGGGLVQAGGSLRLSCAASGRTFTMGWFRQAPGKEREFVAAISLSPTLAYYAESVKGRFTISRDNAKNTVVLQMNSLKPEDTALYYCAADRKSVMSIRPDYWGQGTQVTVSSHHHHHHHH
notes: Single polypeptide expressed in E. coli
B3: Construct 157: Hisx8-anti-BCMA VHH-(G4S)2-CH1-CH2-TAP1 NBD (Cys-less; modified D-helix; D668N)-(G4S)2-anti-CD3 VHH (other)
chain: MHHHHHHHHEVQLVESGGGLVQAGGSLRLSCAASGRTFTMGWFRQAPGKEREFVAAISLSPTLAYYAESVKGRFTISRDNAKNTVVLQMNSLKPEDTALYYCAADRKSVMSIRPDYWGQGTQVTVSSGGGGSGGGGSETEFFQQNQTGGGGSGLQTVRSFGGGGGSGGSGLLTPLHLEGLVQFQDVSFAYPNRPDVLVLQGLTFTLRPGEVTALVGPNGSGKSTVAALLQNLYQPTGGQLLLDGKPLPQYEHRYLHRQVAAVGQEPQVFGRSLQENIAYGLTQKPTMEEITAAAVKSGAHSFISGLPQGYDTEVDEAGSQLSGGQRQAVALARALIRKPSVLILDNATSALDAGNQLRVQRLLYESPERYSRSVLLITQHLSLVEQADHILFLEGGAIREGGTHQQLMEKKGSYWAMVQAPADAPEGGGGSGGGGSGGGGSQVQLVESGGGLVQPGGSLRLSCAASGSIFSANTMGWYRQAPGKQRELVAGMNTSGSTVYGDSVKGRFTISRDNAKNIAYLQMNSLIPEDTAVYYCTLVQRGPNYWGQGTQVTVSS
notes: as for B2

Columns and labels:
[1] = molecular target: the molecule itself; experiment: size exclusion chromatography, 1 mM ATP against 1 mM ADP; ATP mediated shift read as homodimerization
Description: (§1) To evaluate the behavior of the constructs in the presence of ATP and ADP samples of the purified protein (1 mg each) were buffer-exchanged on PD-10 columns (Cytiva 17085101) according to manufacturer instructions. For the buffer exchange PD-10 desalting columns were equilibrated with target buffer (20 mM Tris-Cl pH 8.0, 50 mM NaCl, 5 mM MgCl₂, 10% glycerol) containing either 1 mM ATP or 1 mM ADP. One milligram (100 μl of 10 mg/ml stock) of protein was added to each column along with 2.4 ml of target buffer, the column was centrifuged at 1000×g for 2 minutes in a 50-ml conical tube, and the eluate was collected. Buffer-exchanged proteins were then concentrated to 0.5 ml (˜60 μM) and loaded onto a Superdex S200 Increase column (Cytiva) equilibrated in the appropriate buffer containing ATP or ADP and eluted at 0.5 ml/min.

[2] = molecular target: the molecule itself; experiment: size exclusion chromatography, 1 mM ATP against 1 mM ADP; homodimerization
Description: as §1

Protein	binding result [1]	binding result [2]
B1	binds	
B2	binds	
B3		binds

— patent US20250257148A1 (CROSSLINK THERAPEUTICS, published 2025)
